Among the data in US20180327495A1 are ADCC, specific lysis (PBMC effectors, effector to target ratio 100:1, antibody values, retold here.

In this test the target is Trop-2 (EGP-1) (human) (UniProt P09758). Kind of test: cell-based or functional assay.
Sequence of Trop-2 (EGP-1) (human) (P09758 27-323): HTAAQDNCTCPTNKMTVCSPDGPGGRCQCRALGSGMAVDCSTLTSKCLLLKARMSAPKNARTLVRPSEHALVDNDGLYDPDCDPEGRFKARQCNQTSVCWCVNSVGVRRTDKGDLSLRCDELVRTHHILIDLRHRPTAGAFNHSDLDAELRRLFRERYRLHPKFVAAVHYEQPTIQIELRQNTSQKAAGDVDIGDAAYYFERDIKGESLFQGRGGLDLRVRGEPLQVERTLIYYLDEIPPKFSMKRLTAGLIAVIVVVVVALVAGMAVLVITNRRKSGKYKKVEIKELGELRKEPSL

On to “hRS7 (anti-EGP-1 / anti-Trop-2 humanized MAb), unconjugated IgG (antibody)”, for which the ADCC, specific lysis (PBMC effectors, effector to target ratio 100:1, antibody at 33.3 nM) was 8.5%.
